From paper doi:10.1101/2023.07.25.550453 (bioRxiv, 2023)
Read-outs that look alike come from different tables or passages of the source. One block for each molecule: values may come before it.

B2: CBP20 (NCBP2), human (natural protein)
chain: MSGGLLKALRSDSYVELSQYRDQHFRGDNEEQEKLLKKSCTLYVGNLSFYTTEEQIYELFSKSGDIKKIIMGLDKMKKTACGFCFVEYYSRADAENAMRYINGTRLDDRIIRTDWDAGFKEGRQYGRGRSGGQVRDEYRQDYDAGRGGYGKLAQNQ

Columns and labels:
[1] = molecular target: PHAX^1-18 peptide (ARM 9-EDGQL), biotinylated (human) (UniProt Q9H814); assay: BLI
[2] = molecular target: ZC3H18 double ARM motif peptide, biotinylated (human); assay: BLI
ARS2^147-871 (human) [3] = assay: ITC
[4] = molecular target: T1, nuclear cap-binding complex (CBC: CBP80ΔNLS + CBP20), human (human, UniProt Q09161 20-790; P52298 1-156); assay: ITC
T1 sequence 1: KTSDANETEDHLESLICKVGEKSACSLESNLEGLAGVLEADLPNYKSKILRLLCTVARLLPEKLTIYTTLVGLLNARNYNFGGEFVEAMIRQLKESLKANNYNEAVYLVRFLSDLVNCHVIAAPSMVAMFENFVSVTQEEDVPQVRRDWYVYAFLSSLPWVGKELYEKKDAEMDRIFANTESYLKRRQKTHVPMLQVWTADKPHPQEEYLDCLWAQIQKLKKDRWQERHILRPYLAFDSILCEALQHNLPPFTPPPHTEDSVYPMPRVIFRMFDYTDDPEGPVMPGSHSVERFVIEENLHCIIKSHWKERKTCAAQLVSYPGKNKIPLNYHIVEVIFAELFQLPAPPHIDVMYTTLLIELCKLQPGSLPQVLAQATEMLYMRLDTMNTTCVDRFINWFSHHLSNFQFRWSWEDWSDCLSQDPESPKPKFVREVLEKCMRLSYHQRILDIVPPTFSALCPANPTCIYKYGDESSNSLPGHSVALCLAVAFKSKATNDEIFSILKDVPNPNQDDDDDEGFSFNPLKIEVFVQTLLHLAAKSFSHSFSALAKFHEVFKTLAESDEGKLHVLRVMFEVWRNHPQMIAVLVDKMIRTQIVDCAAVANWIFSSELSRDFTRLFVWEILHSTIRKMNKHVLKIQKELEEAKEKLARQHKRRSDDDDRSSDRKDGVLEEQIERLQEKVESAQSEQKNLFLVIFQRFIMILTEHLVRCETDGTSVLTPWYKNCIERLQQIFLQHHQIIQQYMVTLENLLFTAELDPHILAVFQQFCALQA
T1 sequence 2: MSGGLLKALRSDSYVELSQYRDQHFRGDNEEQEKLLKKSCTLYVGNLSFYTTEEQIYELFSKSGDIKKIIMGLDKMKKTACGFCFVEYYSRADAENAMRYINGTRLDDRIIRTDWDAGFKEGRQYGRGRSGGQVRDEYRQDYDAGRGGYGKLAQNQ

[5] = molecular target: CBP80 (delta NLS);CBP20;PHAX (human;human;human, UniProt Q09161;P52298;Q9H814 20-790;1-156;1-394, del1-19||); assay: cryo-EM
[6] = molecular target: T1, nuclear cap-binding complex (CBC: …); assay: ITC; remark: listed apart in the source
full-length PHAX = full-length PHAX (human, UniProt Q9H814 1-394); assay: cryo-EM structure
CBP80ΔNLS (NCBP1), human = molecular target: T2, CBP80ΔNLS (NCBP1), human (human, UniProt Q09161 20-790); assay: cryo-EM structure
T2 sequence (looked up): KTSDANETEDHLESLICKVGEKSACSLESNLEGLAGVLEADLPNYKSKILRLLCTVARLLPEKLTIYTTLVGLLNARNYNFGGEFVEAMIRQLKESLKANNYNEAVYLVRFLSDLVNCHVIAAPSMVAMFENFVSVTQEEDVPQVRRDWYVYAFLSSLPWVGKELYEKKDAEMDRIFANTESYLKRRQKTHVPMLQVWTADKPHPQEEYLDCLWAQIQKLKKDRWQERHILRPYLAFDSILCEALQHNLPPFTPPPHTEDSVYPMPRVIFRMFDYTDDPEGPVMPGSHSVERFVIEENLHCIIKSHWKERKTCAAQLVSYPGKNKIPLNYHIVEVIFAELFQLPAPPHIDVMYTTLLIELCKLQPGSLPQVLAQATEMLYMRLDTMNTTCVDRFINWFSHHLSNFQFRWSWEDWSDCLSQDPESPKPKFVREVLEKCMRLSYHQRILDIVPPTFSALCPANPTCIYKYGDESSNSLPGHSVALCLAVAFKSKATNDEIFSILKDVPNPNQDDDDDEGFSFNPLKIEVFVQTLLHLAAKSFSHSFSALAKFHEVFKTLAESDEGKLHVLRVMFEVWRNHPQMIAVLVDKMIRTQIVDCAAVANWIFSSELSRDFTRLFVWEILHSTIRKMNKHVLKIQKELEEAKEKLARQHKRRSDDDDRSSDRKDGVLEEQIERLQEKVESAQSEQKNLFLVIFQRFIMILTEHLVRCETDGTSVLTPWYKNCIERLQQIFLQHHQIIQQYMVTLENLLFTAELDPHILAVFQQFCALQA

ARS2^147-871 (human) [7] = assay: ITC; remark: listed apart in the source
[8] = molecular target: T1, nuclear cap-binding complex (CBC: …); assay: pull-down
[9] = molecular target: T1, nuclear cap-binding complex (CBC: …); assay: ITC; remark: listed apart in the source
CBP20 (NCBP2), human = molecular target: B2; assay: cryo-EM structure
[10] = molecular target: T1, nuclear cap-binding complex (CBC: …); assay: SPR

CBP80 (delta NLS);CBP20;PHAX, sequence (Q9H814 whole entry, stated change not applied, one chain of several): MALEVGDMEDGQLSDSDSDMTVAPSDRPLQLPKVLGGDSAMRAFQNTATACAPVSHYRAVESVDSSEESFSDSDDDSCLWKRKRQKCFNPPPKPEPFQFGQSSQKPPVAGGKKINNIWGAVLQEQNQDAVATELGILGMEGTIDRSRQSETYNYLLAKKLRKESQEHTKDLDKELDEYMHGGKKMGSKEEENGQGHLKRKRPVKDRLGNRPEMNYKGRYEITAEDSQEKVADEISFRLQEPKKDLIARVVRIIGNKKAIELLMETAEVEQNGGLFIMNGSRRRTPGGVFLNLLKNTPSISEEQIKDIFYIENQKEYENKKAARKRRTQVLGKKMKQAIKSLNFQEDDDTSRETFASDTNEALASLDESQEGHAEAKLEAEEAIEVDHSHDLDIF
full-length PHAX (human, UniProt Q9H814 1-394), sequence (Q9H814 whole entry): as the sequence (Q9H814 whole entry, stated change not applied, one chain of several) above

Kd [1]: 6100 nM
Kd [2]: 7700 nM
Molecule: ARS2^147-871 (domain or fragment)

Kd (ARS2^147-871 (human) [3]): 4100 nM
Molecule: full-length PHAX (from UniProt Q9H814 1-394) (natural protein)

Kd [4]: 6000 nM
Molecule: TKKVDHRAPGAEEDDSELQRAWGALIKEKEQ (domain or fragment, human, UniProt Q53F19 560-590, looked up) [NCBP3^560-620 truncated to residue 590]

Molecule: AAUCUAUAAUAG (ssRNA, 5' m7Gppp cap) [capped 12-mer RNA (m7Gppp-AAUCUAUAAUAG)]
binding result [5]: binds

Kd [4]: 222 nM
Molecule: TKKVDHRAPGAEEDDSELQRAWGALIKEKEQSRQKKSR (domain or fragment, human, UniProt Q53F19 560-597, looked up) [NCBP3^560-620 with C-terminal residues 598-620 removed]

Kd [6]: 2400 nM
B1: His-MBP-PHAX^103-196 (domain or fragment, human, UniProt Q9H814 103-196, looked up)
chain: SQKPPVAGGKKINNIWGAVLQEQNQDAVATELGILGMEGTIDRSRQSETYNYLLAKKLRKESQEHTKDLDKELDEYMHGGKKMGSKEEENGQGH

Molecule: B2
binding result (full-length PHAX): binds
binding result (CBP80ΔNLS (NCBP1), human): binds

Kd (ARS2^147-871 (human) [7]): 3500 nM
Molecule: KESLEAAKEKKKEDDDGEIDDGEIDDDDLEEGEVKDPSD (domain or fragment) [MBP-ZC3H18^177-215]

binding result [8]: binds
B3: His-MBP-NCBP3^360-620 (domain or fragment, human, UniProt Q53F19 360-620, looked up)
chain: DQDMDADDRVVVEYHEELPALKQPRERSASRRSSASSSDSDEMDYDLELKMISTPSPKKSMKMTMYADEVESQLKNIRNSMRADSVSSSNIKNRIGNKLPPEKFADVRHLLDEKRQHSRPRPPVSSTKSDIRQRLGKRPHSPEKAFSSNPVVRREPSSDVHSRLGVPRQDSKGLYADTREKKSGNLWTRLGSAPKTKEKNTKKVDHRAPGAEEDDSELQRAWGALIKEKEQSRQKKSRLDNLPSLQIEVSRESSSGSEAES

Kd [6]: ~115 nM
Kd [9]: ~173 nM
B4: His-MBP-NCBP3^560-620 (domain or fragment, human, UniProt Q53F19 560-620, looked up)
chain: TKKVDHRAPGAEEDDSELQRAWGALIKEKEQSRQKKSRLDNLPSLQIEVSRESSSGSEAES

binding result (CBP20 (NCBP2), human): binds
B5: NCBP3^560-620 (tag cleaved, cryo-EM sample) (domain or fragment, human, UniProt Q53F19 560-620, looked up)
chain: TKKVDHRAPGAEEDDSELQRAWGALIKEKEQSRQKKSRLDNLPSLQIEVSRESSSGSEAES

Kd [4]: 113 nM
B6: NELF-E^244-380 (domain or fragment, human, UniProt P18615 244-380, looked up)
chain: GPFRRSDSFPERRAPRKGNTLYVYGEDMTPTLLRGAFSPFGNIIDLSMDPPRNCAFVTYEKMESADQAVAELNGTQVESVQLKVNIARKQPMLDAATGKSVWGSLAVQNSPKGCHRDKRTQIVYSDDVYKENLVDGF

Kd [4]: 1300 nM
B7: NELF-E^244-380 (W345E) (domain or fragment, human, UniProt P18615 244-380, looked up)
chain: GPFRRSDSFPERRAPRKGNTLYVYGEDMTPTLLRGAFSPFGNIIDLSMDPPRNCAFVTYEKMESADQAVAELNGTQVESVQLKVNIARKQPMLDAATGKSVEGSLAVQNSPKGCHRDKRTQIVYSDDVYKENLVDGF

Kd (ARS2^147-871 (human) [7]): 700 nM
B8: MBP-ZC3H18^117-258 (domain or fragment)
chain: SSVTRELDEHELDYDEEVPEEPAPAVQEDEAEKAGAEDDEEKGEGTPREEGKAGVQSVGEKESLEAAKEKKKEDDDGEIDDGEIDDDDLEEGEVKDPSDRKVRPRPTCRFFMKGNCTWGMNCRFIHPGVNDKGNYSLITKAD

Kd [10]: 150 nM
Molecule: ESAWERGLRHAKEVLKKATIRKEQEPDFEEKRFTVTIGEDER (domain or fragment, human, UniProt Q86VM9 298-339, looked up) [His-MBP-ZC3H18^298-339]
